Assay results from the RNAGym collection of RNA variant scans (doi:10.7554/elife.90254).

B1: LINE1-full (parent)
chain: UACGUAGGUGGUUUUCCCCUGAUAGUGCUAAGGGGGCCUGGAAGUUUGGACUGGGCAGAGCUCAACACAGCGUGGCAAAGUGGCUGUGGCUAGACUGCCUCUCUGGAUUCCUCGUCACUCAGCAGGGCAUCUCUGAGAGAAAUGCC

Variants of: B1
Assay: self-cleavage, relative activity (ratio to wild type); higher = more cleavage; in vitro, sequencing; the parent is a self-cleaving ribozyme

Variant | self-cleavage
A30G G125U | 1.47
U29G U87C | 0.19
A30G U45C | 1.38
A30U C38A | 0.35
U29G A64G | 0.6
U29C G105A | 1.13
A30G A141U | 1.06
A30G A141C | 0.82
U29C U91C | 1.38
U29C U85G | 0.28
A30C A65G | 0.08
U29C U73A | 1.59
U29C U108G | 1.2
A30G C99U | 1.03
A30G U52A | 1.21
A30G U52C | 1.53
A30C U81C | 0.92
A30G A67U | 0.1
A30G A67G | 0.51
A30U A67U | 0.1
U29G A107G | 2.23
A30G C71U | 0.85
A30U A59G | 0.22
A30U G33A | 1.23

Variant | self-cleavage
A30G A94G | 0.34
A30G A94U | 0.64
A30G G89C | 0.07
A30U A142G | 1.28
U29C C56U | 0.23
A30G A59U | 0.78
A30G G106U | 0.83
A30G G126C | 1.72
U29C U45A | 0
U29C U130C | 1.52
U29C U130A | 1.26
A30C A50G | 1.21
U29C C101G | 0.89
A30G A142G | 1.07
A30G A142U | 0.99
A30G C90U | 0.07
U29G C99A | 0.42
A30G U132C | 1.05
U29G U115C | 0.63
A30G A57C | 0
A30G A57U | 0.27
U29C A142G | 1.38
U29C A142U | 0.86
U29C A142C | 1.06

Variant | self-cleavage
A30G U102G | 1.84
U29C C61A | 0.03
U29C C111U | 1.13
U29C C131U | 0.93
A30U A79G | 0.91
U29G A78G | 0.87
U29C U39C | 1.74
U29C U39G | 0.51
A30G U115C | 1.12
U29C C98U | 0.42
A30U A65U | 0.19
A30G U39C | 1.13
A30G U39A | 0.98
A30G U134A | 1.05
A30G U134C | 1.13
A30G C118U | 1.93
A30C G122A | 1.02
U29C U143C | 1.75
A30G G114A | 0.92
A30U G49U | 0.85
A30G G139A | 1.31
U29C C146U | 1.02
U29C U109A | 1.28
A30U C61G | 0.08

Variant | self-cleavage
A30G U73C | 2.09
A30U G34A | 1.13
U29C G74A | 1.11
A30G A77G | 2.12
A30G G41U | 1.66
A30C A67C | 0.21
A30U A129U | 1.38
A30U A129G | 0.58
A30G U130C | 1.36
U29C C128U | 1.3
A30C A136U | 1.19
A30G U87C | 0.11
A30G G48A | 0.5
A30G A69G | 0.55
A30G A69C | 0.26
U29C G41U | 0.65
U29C G41A | 1.32
A30U C95A | 0.03
U29C U100A | 1.42
A30G A42U | 1.06
A30G A43G | 0.78
U29C G32A | 1.08
A30C U52C | 0.33
U29C G144A | 1.22

Variant | self-cleavage
A30G U100C | 1.07
A30G U100A | 1.59
U29C G122A | 1.68
U29C G122U | 1.35
A30G A31G | 1.15
A30G U46C | 1.06
A30G U46A | 0.84
U29C C116A | 1.16
A30C G58U | 0.09
A30U A77U | 0.98
A30G A65U | 0.39
A30G A136U | 0.55
A30U A64U | 0.51
A30G C56U | 0.84
A30G U47A | 1.57
A30G U47C | 1.09
A30G C116U | 1.27
U29C C71A | 0.32
U29C G125A | 0.94
A30G G49U | 0.89
U29C C113U | 1.44
A30C U130A | 0.75
A30G G75A | 1.05
A30G A78G | 1.34

Variant | self-cleavage
A30G A78U | 1.44
U29C U96A | 0.15
U29C U96C | 0.24
A30U A140U | 0.67
A30U A140G | 1.76
A30G A121G | 0.52
A30G A121U | 0.84
A30G A124U | 1.44
A30U C56U | 0.04
A30U G54U | 0.84
A30C G36A | 1.09
A30G U81A | 1.7
A30G U81C | 1.33
A30G C66U | 0.05
A30U C37G | 0.81
A30G G35A | 1.11
A30G G53A | 0.94
A30G A140C | 0.93
U29C G126A | 0.77
A30G | 1.09
A30U | 1.1
A30C | 1.27
A30U A124G | 0.84
U29C U87A | 0.16

Variant | self-cleavage
U29C U87C | 0.41
A30G C84A | 0.22
A30G C84G | 0.17
A30U G40U | 0.97
U29G C71G | 0.23
U29C G34A | 0.73
A30U A94U | 0.34
A30U A94C | 0
U29C U62A | 0.03
U29C C68U | 0.4
A30G G36C | 1.25
A30G U85C | 0.45
A30U A69G | 0.4
A30G G135A | 1.4
A30U C113U | 0.88
A30C A138G | 1.84
A30C C131G | 2.01
A30G A129U | 0.89
A30G A117U | 1.17
A30U A121G | 1.08
A30U A121C | 0.55
U29C U46C | 1.36
U29C G82A | 1.44
